From the DeepSol protein solubility set

Assay: soluble on expression in E. coli; label from the status in PepcDB or PDB records

Sequence	soluble on expression in E. coli
MGHHHHHHENLYFQSHLYFQSHINEQEREIEKLKRQMAEYGAIIKSLQFRQNSLEDTFIPDLTPKVEPSVNPTGCLLGSNAVHLMRDIKKECDYLGIPDPVPATKPTTQAQDDSQKKAKRSCFGRLFTGPFRRGTSAMKTADEYEKDDRLEELYAQLERDPDP	not soluble
MMLITERRSPFYPNIQNVPPSVIRKLVKNKAITLIDVRQPWEYEDHHIPGSILLPLDYFKELFPLVLSKNNLVKNGVAIICEHANRSTWLVYTEPSLFKEVKVYNMLGGIELWMIMGYEIEKGMDDNGTLWYKLLTKNLGLEHHHHHH	not soluble
MGSDKIHHHHHHENLYFQGMIESIQELLQKEAQAVLNIPVTDAYEKAVELIVEQIHRKKGKLVTSGMGKAGQIAMNIATTFCSTGIPSVFLHPSEAQHGDLGILQENDLLLLISNSGKTREIVELTQLAHNLNPGLKFIVITGNPDSPLASESDVCLSTGHPAEVCTLGMTPTTSTTVMTVIGDILVVQTMKRTEFTIEEYSKRHHGGYLGEKSRKLCVK	soluble
MGSDKIHHHHHHMTIQDYMLETPVRMREIISNADSLFNEVKRTNLKKIIITGSGTSYHSGVQVQPYLQNLLDIDVVKMYPFMITEDTFKFDNENTLVVGVSQGGSSYSTYNAMKLAEDKGCKIASMAGCKNALIDEISDYILTVNCGEEKSGAKTKGYYCTKLNLMLLGLQIAREKGIISSEKYNEEINKILDAINRFEAVYKLSKQWIERNKEKLVNSKEIRIIGHSDIYGDTLEAALKLLETMRIPVTGYEFEEFIHGIYNAINSDSTIFILDTGKEPRVTKMIDVLSGWTENVFAIGRDVTENDKNLKIDITDNPYYQTFNFIVPIQLICGEIPTLRGVDPSVPKDTRFHMKLGSKKLNK	not soluble
MRVAFFGTPLWAVPVLDALRKRHQVVLVVSQPDKPQGRGLRPAPSPVARYAEAEGLPLLRPARLREEAFLEALRQAAPEVAVVAAYGKLIPKEALDIPPHGFLNLHPSLLPKYRGAAPVQRALLAGERETGVSIMRLDEGLDTGPLYAVWRTPILPDEDAVALGNRLRDKGVELLLEVLERLPELTPRPQEGEASYAPPLSKEEGRLDFGESAEALYRRHRAVQPWPGSYFFHRGQRVKALRLRPEPGEGEPGVVARVGPEGVVVGTASGLLLLLEVQPEGRRAMPAADWARGYGVAPGTRLGQV	soluble
MPHLFYGTAQNGEVIFDEREAHHMRVVRLKEGDVIEATDGNGFSYTCILKSLKKKTAAAKIVKVEEKEKEPTEKLSVVVPIGRWERTRFLIEKCVELGVDEIFFHKFERSQHEISLDKAKIVVREAAKQCKRYLFPKVSFLEKLEFSGNVITLDLDASQNLLDANLEGSITVVVGPEGGFSEKERELLRSSTTIVSLGKKILRFETAAILTVGYIALKKQKI	not soluble
MGSDKIHHHHHHMKLAKFDTQPLPHFLMESATVDYAHADIRKLAAALSSDDSTATARHCFEWVRDHIEHSMDFHREEVTCAASDVLQQGTGLCTAKSHLLVALWRANQIPAGFCYQRLTLDGPNPPYCTHGFTAVWLNGRGWYRCDARGNSKPGIHCEFTPGQENLAFSSRYDGERTYPEVWAEPWPDLLTAMEKLQNISQYRSHPIDARPPAADLCVSESAAPNME	not soluble
MQTSFCVLVSIIERMPTWNDIKVRNPQHSHNYAKRWENLEAEGNDINGEARLIDALVQRGSKILDAGCGQGRVGGYLSARGHIVTGIDIDDYLISEAEKKFPSATWHVGDLGSESIPDQGFDIAVCAGNVITFIEPDKQEAALAHIFEALRPNGRCIIGFGAGRGYVFPQFFEDARNVGFVIENNFESWGLNPLTNRSQFLVAFLRKPELEHHHHHH	not soluble
MSVLSIIACEMLEDELVYVLSKDQNAVRLILVENRQCFRFVRKLKSGNCQARIFPPERISFFIKQMNRPASMKIPNFLLKFPFFGKIHENMKEKNRETITVVVNILKLGLHADCDLLKSEIYRNMKEMVEFSDGILIFYGNCGRPLRGLEAEFKDFNCPLYFLEDEKGNIVDDCISIALGGNDNYAEVMQSGNGTGMIYLTPMWASSWKEMRMEPGDTSDFNVSFLKRHYRKVVKISNEISMGSEFDKNVLNYARTFDMSIIEMKGSMEIAMKSYMNARNGICKKDPIQKSSLEHHHHHH	not soluble
MSLERSLSMELVRVTEAAALASARWMGRGKKDEADEAATSAMRDVFDTVPMKGTVVIGEGEMDEAPMLYIGEKLGNGYGPRVDVAVDPLEGTNILASGGWNALTVIAVADHGTLLNAPDMYMQKIAVGPEAVGCIDIEAPVIDNLKAVAKAKNKDVEDVVATILNRERHAKIISELREAGARIKLINDGDVAGAINTAFDHTGVDILFGSGGAPEGVLSAVALKALGGEIIGKLLPQSEEEITRCHKMGLDLSKVLRMEDLVKGDDAIFAATGVTDGELLKGVQFKGSVGTTESLVIRAKSGTVRFVDGRHSLKKKPNLVIRPEGGSHHHHHH	soluble
MKDVILVIYSLIKMTKLRSCPLDDCNSSETYFQLDKHLKNEHDGLVLLMVDPQSQWRCEQMKRHVEYVDLMSATEIPHIAEVVHHQLPYIDTLIIFRCLS	soluble
MSNKEYRPTLAQLRTFATIAENKHFGTAAAKLSISQPSLSQALAALENGLGVQLIERSTRRVIVTPAGEMLLPYAKATLDAADAFLAHAH	soluble
MSLKSAKDVQTITKITIDFGGEEIFLDFDEVTKHYLNQPLSAKTVFALTKELTQVLYNAGYVTSAIGLKSSKIKNGEVEFVVLWGKVNDILVEEQQASLFKDKAMLFVLPNLKGKVLRIYDVDQLIEILNTGNKTAKVNVIAANEKSMSNLSIERHRTSYPQVSLSLNNSGEGSNAEGRNQATLSISWSDLLGTNDRWSFSTGYRIYKDRQANRQQNYSLSYTQPFSFSTLDIKLSYSGYKKQLRGIHTHGSSGETKQASFKLSHTLLRNKDMILSLYGELEFKRRLSYFGDIRIGKYHNNKLNIGLSYVTNLGHGKLYSDLSYSNGLRWFNANHSAYNSHRDKTLRLVSGSINWQRPFVFFNRGMSYQFRLGAQYGFDSLYGENQFSIGDEYTVRGFKGGAGSGDRGFYISQTVTIPFYPQKSYLSYINPFLGIDIGKVHAKRPHHVVDTFAGFAFGVKAQIKSLALSLTYAKPINGVGTFEESNKKSVFYFTGSVSFEGHHHHHH	not soluble
MPILQPKLMKQLMKFAIFGNTYQPKKSLHALRLFELLKKQGAEICMCREFYQFLTADLKMEVPVDALLEGNDFTADMVISIGGDGTFLKAARRVGRKQIPILGINTGRLGFLADVSPEEMEVTFEEIQAGRYSVEERSVLQLICNDRNLQESPYALNEIAVLKRDSSSMISIRTAINGAYLNTYQADGLVIATPTGSTAYSLSVGGPIIVPHSNTIAITPVAPHSLNVRPIVIRDDWEITLDVESRSHNFLVAIDGSSETCKETTQLTIRRADYSIKVVKRFNHIFFDTLRSKMMWGADGRRLEHHHHHH	soluble
MDRKGFLKSTMIATGSLLLGGAGICRFLNDKEPADGPFPRTIEKIHCGNMKKVLVIMSAGTKLGNTDRLTDAYIKGLVERGHSVTKVYLGSMRIEGCRGCGVCQRLAHQCAVRDGMQDIYPLFAECDTVVMASPLYFWTITSQLKAFIDRLYAISADDKYPQKDTVLLMTAGDDNENTFDQPKQYFRLLSQALGWNEVGIYCAGGCTGCEKLARQIDKVHLENVYKMGLEL	not soluble
MSTDPTPPQLTRRTAKVSIDNQTGSHFKFQVTHKYTGWDADKSDVVMFQPDEVKEIFKSVAYNTGFLTTGVDNWLVDGTMVQERTEVDNKGHQIGKKSYIEHAKFISDSRSWKQHMLTAEDDGKTTTIRVFPTEIHFISPSGESTTTFTKY	not soluble
MSLVQLYVSDSVSRISFADGRVIVWSEELGESQYPIETLDGITLFGRPTMTTPFIVEMLKRERDIQLFTTDGHYQGRISTPDVSYAPRLRQQVHRTDDPAFCLSLSKRIVSRKILNQQALIRAHTSGQDVAESIRTMKHSLAWVDRSGSLAELNGFEGNAAKAYFTALGHLVPQEFAFQGRSTRPPLDAFNSMVSLGYSLLYKNIIGAIERHSLNAYIGFLHQDSRGHATLASDLMEVWRAPIIDDTVLRLIADGVVDTRAFSKNSDTGAVFATREATRSIARAFGNRIARTATYIKGDPHRYTFQYALDLQLQSLVRVIEAEGHHHHHH	not soluble
MGSDKIHHHHHHVIKLIRQFVLPHFGIDATEAKISALGNGHINETLLVRWPTGELVLQRINTQVFKTPQALVSNADKISHHLCAKALQQQYGLKVVSPCLTKEGELALDLGEQGFWRAISYLPHSHSIEVVKSEKEAEMAAKAFGHFASALSDFDATQLEDVIPQFHHLPGRMALLKQAVELDSQHRLAFCRHWVDYAVSQQALLDELAEISPKLPLRICHNDTKINNMLFDKRDMSSMAIIDLDTCMKGHLMYDFGDMVRTFCSPEAEDSTALENVKVRQSIFAAICRGYLSELGNVLTEVEKRSLWLGARVICLMIGVRFLTDYLNGDVYFHIHREGHNLDRAANQFTLYQSLLDQDVALKACFELNPLSAVEHS	not soluble
MSQVKRANENRETARFIKKHKKQVTNPIDEKNGTSNCIVRVPIALYVSLAPMYLENPLQGVMKQHLNPLVMKYNNKVGGVVLGYEGLKILDADPLSKEDTSEKLIKITPDTPFGFTWCHVNLYVWQPQVGDVLEGYIFIQSASHIGLLIHDAFNASIKKNNIPVDWTFVHNDGNRSLGHWVDSNGEPIDGKLRFTVRNVHTTGRVVSVDGTLIS	soluble
MKEKIPFYNEKEFHDMMKKTKKGTFSGWYIIDKDNKSVEFSGNFNRQFKLNKPVIPVNTEYVTRKEFNEYKDSNDQRLTKIETTLAAQGEQIRIQGEQIKELQIEQKAQGETLKLILQTLQKMSDRLNKMDVRLDKLESKLEHHHHHH	not soluble
MGSDKIHHHHHHMEPIIEIENFSAYYGEKIAVKNVTMKIFKNQITAIIGPSGCGKTTLLRSINRMNDHLPGFRVEGKIYFKGQDIYDPQLDVTEYRKRVGMVFQKPTPFPMSIYDNVAFGPRIHGVKSKHILDRIVEESLKKAALWDEVKSELNKSGTRLSGGQQQRLCIARALAVEPEVILLDEPTSALDPIATQRIEKLLEELSENYTIVIVTHNIGQAIRIADYIAFMYRGELIEYGPTREIVERPKNRLTEEYLTGKIG	not soluble
MLNDVYNKRIIELAGNIPRIGRLERPDASATAHSKLCGSTVTIDLKMDGDTVTDFAHIVKACALGQASSSIMASHVVGSTASELKALRETVRKMLKENGAPPDGKWADIAMLEPVRDYKARHASTLLTFDAVVDAIGQIEAQNDGAKATA	not soluble
VVIRVLFRPVSLIPVNNSSTPQSQGPISRRLALTALGFGVLAPNVLVACAGKVTKLAEKRPPPAPRLTFRPADSAADVVPIAPISVEVGDGWFQRVALTNSAGKVVAGAYSRDRTIYTITEPLGYDTTYTWSGSAVGHDGKAVPVAGKFTTVAPVKTINAGFQLADGQTVGIAAPVIIQFDSPISDKAAVERALTVTTDPPVEGGWAWLPDEAQGARVHWRPREYYPAGTTVDVDAKLYGLPFGDGAYGAQDMSLHFQIGRRQVVKAEVSSHRIQVVTDAGVIMDFPCSYGEADLARNVTRNGIHVVTEKYSDFYMSNPAAGYSHIHERWAVRISNNGEFIHANPMSAGAQGNSNVTNGCINLSTENAEQYYRSAVYGDPVEVTGSSIQLSYADGDIWDWAVDWDTWVSMSALPPPAAKPAATQIPVTAPVTPSDAPTPSGTPTTTNGPGG	not soluble
SVKRKSSEGQEQDGGRGIPLPIQTFLWRQTSAFLRPKLGKQYEASCVSFERVLVENKLHGLSPALSEAIQSISRWELVQAALPHVLHCTATLLSNRNKLGHQDKLGVAETKLLHTLHWMLLEAPQDCNNERFGGTDRGSSWGGSSSAFIHQVENQGSPGQPCQSSSNDEEENNRRKIFQNSMATAELFVFLFAPLVHRIKESDLTFRLASGLVIWQPMWEHRQPGVSGFTALVKPIRNIITAKRSSPINSQSRTCESPNQDARHLEGLQVVRETFQSDSISPKATISGCHRGNSFDGSLSSQTSQERGPSHSRSTFHFPP	soluble
